Measurements reported in patent US7235648B1, “Yeast cells engineered to produce pheromone system protein surrogates, and uses therefor” (Cadus Technologies, Inc., priority 1993, dated 2007).
Ends that are not written are not given here.

What was measured:
Type in all cases: cell-based
STE2 receptor = target: T1, STE2 receptor (Saccharomyces cerevisiae, UniProt D6VTK4); test: Autocrine MATa yeast (CY588/CY1455) growth on histidine-deficient medium plus aminotriazole, fus1-HIS3 readout; settings: -His medium with 1.0 mM or 2.5 mM aminotriazole
T1 construct: endogenous in cells; host or cells: S. cerevisiae MATa CY588 / CY1455
T1 sequence (D6VTK4 1-431): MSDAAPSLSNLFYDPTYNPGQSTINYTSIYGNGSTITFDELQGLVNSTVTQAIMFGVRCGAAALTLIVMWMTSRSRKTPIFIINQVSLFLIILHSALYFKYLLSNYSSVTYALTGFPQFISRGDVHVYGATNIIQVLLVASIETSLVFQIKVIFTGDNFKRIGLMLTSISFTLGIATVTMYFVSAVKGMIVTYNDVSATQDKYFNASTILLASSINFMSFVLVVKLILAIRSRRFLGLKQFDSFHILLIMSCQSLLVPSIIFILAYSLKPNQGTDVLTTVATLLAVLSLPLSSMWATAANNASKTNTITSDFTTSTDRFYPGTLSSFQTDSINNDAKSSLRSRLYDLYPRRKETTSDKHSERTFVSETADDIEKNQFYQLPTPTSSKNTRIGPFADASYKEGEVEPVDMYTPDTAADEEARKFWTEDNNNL

STE3 = target: T2, STE3 (Saccharomyces cerevisiae, UniProt P06783); test: Autocrine yeast (CY599/CY2012, ste2-STE3) growth on histidine-deficient medium plus aminotriazole, fus1-HIS3 readout; settings: for ability of the peptide-encoding plasmid to confer the His phenotype on CY2012 (a-factor analogues): -His medium with 0.2 mM 3-aminotriazole, random a-factor library
T2 construct: fragment containing the entire coding region of STE3 flanked by the two newly introduced Spe I sites; expressed in transfected cells; host or cells: S. cerevisiae CY599 / CY2012 (ste2-STE3, chromosomal replacement with Cadus 1147)
T2 sequence (P06783 1-470): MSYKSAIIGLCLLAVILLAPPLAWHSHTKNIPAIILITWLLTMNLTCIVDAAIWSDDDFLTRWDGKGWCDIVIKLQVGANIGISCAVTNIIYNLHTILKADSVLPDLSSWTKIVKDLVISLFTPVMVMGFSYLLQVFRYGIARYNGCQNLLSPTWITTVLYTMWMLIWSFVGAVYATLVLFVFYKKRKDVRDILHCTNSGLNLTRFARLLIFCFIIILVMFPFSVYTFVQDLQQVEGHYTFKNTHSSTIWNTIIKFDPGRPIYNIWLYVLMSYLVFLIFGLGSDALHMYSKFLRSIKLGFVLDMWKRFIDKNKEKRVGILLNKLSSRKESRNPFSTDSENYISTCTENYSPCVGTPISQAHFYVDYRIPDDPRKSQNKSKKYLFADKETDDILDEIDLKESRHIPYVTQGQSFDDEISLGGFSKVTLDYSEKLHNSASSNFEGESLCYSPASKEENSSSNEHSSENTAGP
Excerpt: A MATa strain designed for the expression of peptides in the context of MFA1 (i.e., using the MFA1 expression vector, Cadus 1239) has been constructed. The genotype of this strain, designated CY599, is […] mfa1 mfa2 far1-1 his3::fus1-HIS3 ste2-STE3 ura3 met1 ade1 leu2. In this strain, Cadus 1147 (see above) was used to replace STE2 with a hybrid gene in which the STE3 coding region is under the control of expression elements which normally drive the expression of STE2. As a result, the a-factor receptor replaces the α-factor receptor. The genes which encode a-factor are deleted from this strain: the far1 mutation abrogates the arrest of growth which normally follows stimulation of the pheromone response pathway; and the FUS1-HIS3 hybrid gene (integrated at the HIS3 locus) provides a selectable signal of activation of the pheromone response pathway. CY599 cells were expected to be capable of the transport of a-factor or a-factor-like peptides encoded by oligonucleotides expressed from Cadus 1239 by virtue of expression of the endogenous yeast transporter, Ste6.
Experiments were performed to test: 1. the ability of Cadus 1239 to function as a vector for the expression of peptides encoded by synthetic oligonucleotides; 2. the suitability of the oligonucleotides, as designed, to direct the export of farnesylated, carboxymethylated peptides through the pathway normally used by a-factor; 3. the capacity of CY599 to export these peptides; and 4. the ability of CY599 to respond to those peptides that stimulate the pheromone response pathway by growing on selective media. These tests were performed using an oligonucleotide which encodes the 12 amino acid a-factor; specifically, the degenerate sequence (NNN)n in the oligo-nucleotide cloned into Cadus 1239 (see above) (with n=12) encodes the peptide component of a-factor pheromone. CY599 was transformed with the resulting plasmid (Cadus 1220), and transformants selected on uracil-deficient medium were transferred to histidine-deficient medium supplemented with a range of concentrations of aminotriazole. […] Cadus 1220 and the designed oligonucleotide are competent to direct the expression and export of a farnesylated, carboxy-methylated peptide encoded by the (NNN)n sequence of the synthetic oligonucleotide; and 2. CY599 can, in an autocrine fashion, respond to a farnesylated, carboxy-methylated peptide that stimulates its pheromone response pathway, in this case signaling initiates as a-factor binds to STE3.
An optimized version of strain 6 (Example 2 above) was derived. This yeast strain, CY2012 (MATa ste2-STE3 far1Δ1442 mfa1::LEU2 mfa2-lacZ fus1-HIS3 tht1-1 ura3 leu2 his3 trp1 ste2), was constructed as follows. […]

WKK6 cells = test: Valinomycin filter disk assay on lawns of ste6 yeast (WKK6) expressing human Mdr1 constructs; settings: 5 mM valinomycin in DMSO on filter disk
Method: CADUS plasmids 1065, 1079 and 1097 as well as a URA3 control plasmid (pRS426=1019) were transformed into a ura3^−, ste6^− strain of yeast (WKK6=CY20=MATa ura3-1 leu2-3.112 his3-11.15 trp1-1 ade2-1 can1-100 ste6::HIS3, obtained from Karl Kuchler). Individual transformants were grown overnight in SD-URA media and lawns containing approximately 5×10^6 cells were poured onto YPD plates in 3 ml of YPD top agar. Sterile filter disks were placed on the plates after the top agar had solidified, and […] of DMSO or 5 mM valinomycin in DMSO were spotted onto the filter disks.

[1] = target: T3, wild-type human Mdr1 protein (Homo sapiens, UniProt P08183); test: Halo assay of a-factor transport by human Mdr1 in ste6 yeast on supersensitive MATα lawn; settings: yeast deleted for STE6; halo size 1097>1079~1065>1019
T3 construct: expressed in transfected cells; host or cells: S. cerevisiae WKK6 (CY20, ste6::HIS3), plasmid Cadus 1097
T3 sequence (P08183 whole entry): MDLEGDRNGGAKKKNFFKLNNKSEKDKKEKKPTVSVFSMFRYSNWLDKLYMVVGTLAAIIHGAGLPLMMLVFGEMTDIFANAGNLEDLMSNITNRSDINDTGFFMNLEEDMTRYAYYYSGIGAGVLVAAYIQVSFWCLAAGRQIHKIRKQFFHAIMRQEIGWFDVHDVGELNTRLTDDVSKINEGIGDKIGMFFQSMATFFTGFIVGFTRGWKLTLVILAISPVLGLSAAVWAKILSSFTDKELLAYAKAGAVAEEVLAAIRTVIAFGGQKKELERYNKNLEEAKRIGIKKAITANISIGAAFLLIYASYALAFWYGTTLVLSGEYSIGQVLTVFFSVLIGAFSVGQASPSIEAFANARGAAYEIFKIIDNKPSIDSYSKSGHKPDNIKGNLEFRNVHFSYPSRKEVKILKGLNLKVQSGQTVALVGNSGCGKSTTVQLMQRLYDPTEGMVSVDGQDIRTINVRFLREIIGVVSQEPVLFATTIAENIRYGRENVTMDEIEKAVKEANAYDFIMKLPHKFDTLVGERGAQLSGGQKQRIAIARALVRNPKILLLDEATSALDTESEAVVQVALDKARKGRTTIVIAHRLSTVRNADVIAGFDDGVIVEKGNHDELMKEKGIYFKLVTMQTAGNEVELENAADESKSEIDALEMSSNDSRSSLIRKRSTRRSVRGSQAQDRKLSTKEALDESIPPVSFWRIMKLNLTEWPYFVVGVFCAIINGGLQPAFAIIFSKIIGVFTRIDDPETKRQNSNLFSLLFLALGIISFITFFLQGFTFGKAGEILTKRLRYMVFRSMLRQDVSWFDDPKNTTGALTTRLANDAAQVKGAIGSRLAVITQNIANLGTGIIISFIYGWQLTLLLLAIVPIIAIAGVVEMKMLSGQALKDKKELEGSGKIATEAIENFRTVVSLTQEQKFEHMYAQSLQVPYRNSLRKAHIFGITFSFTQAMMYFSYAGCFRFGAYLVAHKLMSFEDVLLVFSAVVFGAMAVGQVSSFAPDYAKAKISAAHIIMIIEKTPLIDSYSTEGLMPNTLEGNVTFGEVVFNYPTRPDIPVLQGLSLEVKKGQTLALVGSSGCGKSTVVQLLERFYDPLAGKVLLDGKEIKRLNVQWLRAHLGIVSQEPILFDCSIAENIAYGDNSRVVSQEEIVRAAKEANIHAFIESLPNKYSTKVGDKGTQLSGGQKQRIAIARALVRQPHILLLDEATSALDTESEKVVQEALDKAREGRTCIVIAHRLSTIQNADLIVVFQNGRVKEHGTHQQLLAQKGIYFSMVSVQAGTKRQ
Method: A “halo” assay was performed by patching WKK6 cells containing the various Mdr1 constructs (1019, 1065, 1079 & 1097) onto a lawn of Matα cells which are supersensitive to a-factor (CY32=MATα leu2-3.112 trp1-289 ura3-52 his3*1 sst2*2 GAL+).

Compound | agonist activity on the STE2 receptor, MFα-5.8 library (STE2 receptor) | ability of the peptide-encoding plasmid to confer the His phenotype on CY2012 (a-factor analogues) (STE3) | other results
Trp His Trp Leu Gln Leu Thr Pro Gly Gln Pro Met Tyr (WHWLQLTPGQPMY) [SEQ ID NO:47] | acted as agonists | – | –
WHWLELMPGQPLY [SEQ ID NO49] | acted as agonists | – | –
LMSPSFFFLPA [SEQ ID NO:57] | – | confer the His^− phenotype | –
WHWMELRPGQPMY [SEQ ID NO:51] | acted as agonists | – | –
FKGQVRFVVLA [SEQ ID NO:55] | – | confer the His^− phenotype | –
YALFVHFFDIP [SEQ ID NO:53] | – | confer the His^− phenotype | –
CC(C)[C@@H]1NC(=O)[C@H](C)OC(=O)[C@@H](C(C)C)NC(=O)[C@@H](C(C)C)OC(=O)[C@H](C(C)C)NC(=O)[C@H](C)OC(=O)[C@@H](C(C)C)NC(=O)[C@@H](C(C)C)OC(=O)[C@H](C(C)C)NC(=O)[C@H](C)OC(=O)[C@@H](C(C)C)NC(=O)[C@@H](C(C)C)OC1=O [valinomycin] | – | – | resistance to valinomycin conferred by mutant Mdr1 (G185V) (WKK6 cells; WKK6 cells with plasmid 1079): weak resistance; resistance to valinomycin conferred by wild type Mdr1 (WKK6 cells; WKK6 cells with plasmid 1097): complete resistance
Tyr Ile Ile Lys Gly Val Phe Trp Asp Pro Ala (YIIKGVFWDPA; not fully specified (C-terminus); printed as Tyr Ile Ile Lys Gly Val Phe Trp Asp Pro Ala; also: C-terminal cysteine carboxymethylated) [a-factor, yeast dodecapeptide mating pheromone with C-terminal farnesylated, carboxymethylated cysteine, reference compound] | – | – | transport by wild-type human Mdr1 protein [1]: can be transported; aminotriazole-resistant growth on histidine-deficient media (autocrine response, a-factor binds to STE3) (STE3; CY599 transformed with Cadus 1220, range of aminotriazole concentrations): enhanced aminotriazole-resistant growth
